Reference: PMC5018218

Columns and labels:
Test in all cases: EMSA
[1] = target: DmcElp3 wild type (monomer) (Dehalococcoides mccartyi, UniProt A0A1C7D1B7 1-459)
[2] = target: DmcElp3 wild type (dimer) (Dehalococcoides mccartyi, UniProt A0A1C7D1B7 1-459)
DmcElp3 9-459 = DmcElp3 9-459 (Dehalococcoides mccartyi, UniProt A0A1C7D1B7 9-459)
DmcElp3 K2A K3A = DmcElp3 K2A K3A (Dehalococcoides mccartyi, UniProt A0A1C7D1B7 1-459, K2A;K3A)
DmcElp3 R6A = DmcElp3 R6A (Dehalococcoides mccartyi, UniProt A0A1C7D1B7 1-459, R6A)

B1: D. mccartyi tRNAGlu-1 (UUC) (structured_RNA)
RNA: GCCCCCAUCGUCUAGAGGCCCAGGACAGCGGCCUUUCACGCCGUCAACAGGGGUUCGAAUCCCCUUGGGGGUACCA
Kd [1]: ~4 µM | Kd [2]: ~4 µM | binding result (DmcElp3 9-459): no binding | binding result (DmcElp3 K2A K3A): no binding | binding result (DmcElp3 R6A): no binding
